Data set [1] addresses T1, SMAD3 MH1 (human (Fig. 1/3 legends), UniProt P84022 10-136). Description: EMSA; similar to sense SBE; EMSA: 7.5 nM Cy5-dsDNA, 200 mM Tris pH 7.2, 100 mM NaCl, 2 mM TCEP, 15 min on ice; 6% PAGE in TG buffer, 4 °C; Hill fit, n = 2. The note with it: protein: recombinant; tags: N-terminal His tag cleaved (TEV or 3C); chain copies: 2; label: 5'-Cy5. On the technique in general: In EMSA bound probe runs differently from free probe, usually more slowly.

Data set [2] deals with SMAD4 MH1 (human (Fig. 1 legend), UniProt Q13485 18-142). Kind of data set: EMSA; EMSA: 7.5 nM Cy5-dsDNA, 200 mM Tris pH 7.2, 100 mM NaCl, 2 mM TCEP, 15 min on ice; 6% PAGE in TG buffer, 4 °C; Hill fit, n = 2. The note with it: protein: recombinant; tags: N-terminal His tag cleaved (TEV or 3C); label: 5'-Cy5.
SMAD4 MH1, sequence (Q13485 18-142): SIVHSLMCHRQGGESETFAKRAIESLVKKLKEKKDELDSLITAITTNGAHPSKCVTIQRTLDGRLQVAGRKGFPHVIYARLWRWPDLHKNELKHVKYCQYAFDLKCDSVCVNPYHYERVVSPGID
Data set [3] deals with T1, SMAD3 MH1. The data set is described as above. The note with it: protein: recombinant; tags: N-terminal His tag cleaved (TEV or 3C); chain copies: 2; label: 5'-Cy5.
Data set [4] has as its target T1, SMAD3 MH1. Kind of data set: EMSA; Hill h = 1.80 ± 0.23; double binding; EMSA: 7.5 nM Cy5-dsDNA, 200 mM Tris pH 7.2, 100 mM NaCl, 2 mM TCEP, 15 min on ice; 6% PAGE in TG buffer, 4 °C; Hill fit, n = 2. The note with it: protein: recombinant; tags: N-terminal His tag cleaved (TEV or 3C); chain copies: 2; label: 5'-Cy5.

Drawing on paper PMC11907993, “Rare but specific: 5-bp composite motifs define SMAD binding in BMP signaling”, this text covers binding result and Kd for 5 molecules.

T1 sequence (P84022 10-136): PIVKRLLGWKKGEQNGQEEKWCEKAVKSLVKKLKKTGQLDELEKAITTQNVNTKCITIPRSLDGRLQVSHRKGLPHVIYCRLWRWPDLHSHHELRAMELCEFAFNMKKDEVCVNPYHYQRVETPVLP

B1: pGC-SBE/SBE heterocomposite, inverted SBE (dsDNA)
DNA 1: ATATAGTCTGAACTTGGCGCCATAT
DNA 2: ATATGGCGCCAAGTTCAGACTATAT
For the molecule B1, the binding result in data set [1] is “binds”.

B2: SBE+ (dsDNA)
DNA 1: ATATGTCTGATAT
DNA 2: ATATCAGACATAT
By Kd is commonly meant the equilibrium constant for the complex coming apart. On to B2, for which the Kd stood at 0.919 ± 0.07 µM in data set [2] and 0.366 ± 0.029 µM in data set [3].

B3: pGC-SBE/SBE heterocomposite, sense SBE (dsDNA)
DNA 1: ATATGGCGCCAACTTGTCTGATATA
DNA 2: TATATCAGACAAGTTGGCGCCATAT
Regarding B3, the binding result in data set [3] is given as “binds”.

B4: npGC-SBE+ (dsDNA)
DNA 1: ATATGGCTCCATAT
DNA 2: ATATGGAGCCATAT
Consider B4, for which the values for the Kd in data set [2] and in data set [3] were 1.34 ± 0.744 µM and 0.66 ± 0.28 µM, respectively.

B5: pGC-SBE+ (dsDNA)
DNA 1: ATATGGCGCCATAT
DNA 2: ATATGGCGCCATAT
As for B5, the Kd in data set [2] is 0.886 ± 0.274 µM; in data set [4] it was 0.293 ± 0.032 µM.
